{"source": "patent US9364516B2", "about": "“Treatment of fibrosis-related disorders using fibronectin binding proteins and polypeptides” (priority 2010, dated 2016)", "key": {"left carotid artery": {"system": "left carotid artery", "test": "Detection of Texas-Red conjugated peptides in vessel wall", "type": "in vivo, mouse", "settings": "Texas-Red conjugate 20 μM in pluronic gel, periadventitial", "description": "FIGS. 8A-8E provide visualization of pUR4 in the vessel wall. Texas-Red (TR) conjugated pUR4 (20 μM) was embedded in pluronic gel and periadventitially delivered to the left carotid artery following ligation surgery as described infra. The right carotid artery from the same animal was used as a control. Mice were sacrificed 1, 3, and 7 days after surgery, and the carotid arteries were harvested and flash frozen. Longitudinal sections (20 μm) were immunostained with an anti-TR antibody. Representative images from the right common carotid artery (FIG. 8A), and left common carotid artery of 1 day (FIG. 8B), 3 day (FIG. 8C), and 7 day (FIG. 8D) animals are shown. The percentage area which is TR (+) (FIG. 8E) was assessed in the media of the vessels. Media=M; adventitia=Ad; lumen=L. Bar, 20 μm.\npUR4 and III-11C were conjugated to Texas-Red, as per the manufacturer's instructions (Molecular Probes/Invitrogen). 20 μM Texas-Red (TR) conjugated proteins were embedded in pluronic gel and applied to the vessel following ligation surgery. […] For quantitatively evaluating the efficacy of peptide delivery to the common carotid artery, 15-18 fields of view in the media from 2-3 mice at each time point were analyzed. The TR (+) areas were quantitated using an automated programmed segmentation procedure in ImagePro. The percentage of TR (+) area to the total medial area was determined."}, "[1]": {"system": "left carotid artery of FVB mice", "test": "Carotid ligation flow-induced vascular remodeling, morphometry", "type": "in vivo, mouse", "description": "Both sexes of FVB transgenic mice were used for the carotid ligation experiments, since no significant differences in their modeling response were reported between male and female mice. All procedures were approved by the University of Rochester Animal Care Committee, and were performed in accordance with the guidelines of the National Institutes of Health for the care and use of laboratory animals.\nDigital images of Verhoeff-van Gieson elastic stained cross-sections were captured and morphometric analysis was performed using Image-Pro Plus software (Media Cybernetics, Md.). The circumferences of the lumen, internal elastic lamina (IEL) and external elastic lamina (EEL) in the sections were identified using the automatic trace mode in Image-Pro. The accuracy of the automated tracing was verified by visual inspection of the images. Cross-sectional areas of the lumen, neointima, media, adventitia, and the area encompassed by the EEL were measured. Vessel compartment volumes were calculated as described (Intengan et al., “Vascular Remodeling in Hypertension: Roles of Apoptosis, Inflammation, and Fibrosis,” Hypertension 38:581-587 (2001), which is hereby incorporated by reference in its entirety). Briefly, starting with the carotid bifurcation as the origin, a series of cross-sections of 5 μm were cut every 200 μm through the first mm length of the carotid artery. Morphometric analysis was performed at each point, and the average of each division was calculated, summed, and reported as the volume.\nBlood flow in the left carotid artery of 10-week-old FVB/NJ (FVB) mice was reduced by ligating the external and internal carotid arterial branches as described (Korshunov et al., “Flow-Induced Vascular Remodeling in the Mouse: A Model for Carotid Intima-Media Thickening,” Arterioscler. Thromb. Vasc. Biol. 23:2185-2191 (2003), which is hereby incorporated by reference in its entirety). Mice were anesthetized with an intraperitoneal injection of ketamine (80 mg/kg) and xylazine (5 mg/kg) as described in the above-cited referenced. The left common carotid artery was dissected free of the surrounding connective tissue and 50 μL of F-127 pluronic gel (BASF) containing 20 μmol/L pUR4 or III-11C was applied around the carotid artery. Animals were separated into 5 groups containing 5 to 10 animals each: (1) sham-operated, in which the branches of the left carotid artery were exposed and dissected out, but not ligated; (2) ligation; (3) ligation with pluronic gel; (4) ligation with pluronic gel containing III-11C; (5) ligation with pluronic gel containing pUR4.\nBlood flow in the left and right common carotid artery was measured using an ultrasonic transit-time volume flowmeter (Transonic Systems) before sacrifice. Animals were perfusion-fixed with 10% formalin 7 or 14 days after surgery. The common carotid arteries were harvested and embedded in paraffin. Cross-sections of 5 μm were cut from the bifurcation every 200 μm through the first mm length of the carotid artery as described (Korshunov et al., “Flow-Induced Vascular Remodeling in the Mouse: a Model for Carotid Intima-Media Thickening,” Arterioscler. Thromb. Vasc. Biol. 23:2185-2191 (2003), which is hereby incorporated by reference in its entirety). Sections were stained with Verhoeff-van Gieson elastic stain, and then subjected to morphometric analysis. […]"}, "[2]": {"system": "fibronectin matrix assembly", "test": "Inhibition of fibronectin matrix assembly in cell culture", "type": "cell-based", "settings": "cell culture experiments"}, "[3]": {"system": "fibronectin binding to the cell surface", "test": "Inhibition of fibronectin binding to the cell surface", "type": "cell-based"}, "Rat aortic SMCs": {"system": "Rat aortic SMCs", "test": "Fibronectin and collagen I deposition in cultured SMCs (immunostaining)", "type": "cell-based", "settings": "500 nM peptide, 3 days, serum containing media", "description": "FIGS. 1A-1I depict the effect of pUR4 on fibronectin and collagen I deposition in smooth muscle cells (SMCs). Rat aortic SMCs were grown in serum containing media in the absence (FIGS. 1A-1C) or presence of 500 nM pUR4 (FIGS. 1D-1F) or control III-11C (FIGS. 1G-1I) peptides for 3 days. Cell were fixed, and then incubated with a polyclonal antibody to fibronectin (FIGS. 1A, 1D, and 1G) or collagen I (FIGS. 1B, 1E, and 1H). Bar, 20 μm.\nRat aortic smooth muscle cells (RASM) were obtained from Cell Applications (San Diego, Calif.) and maintained in serum containing media (Cell Applications). SMC were used at passages 4-6.\nPrevious data has shown that fibronectin regulates the deposition of other proteins into the ECM, including type I collagen (Sottile et al., “Fibronectin Polymerization Regulates the Composition and Stability of Extracellular Matrix Fibrils and Cell-Matrix Adhesions,” Mol. Biol. Cell. 13:3546-3559 (2002), which is hereby incorporated by reference in its entirety). […] However, there was a trend toward decreased fibronectin and collagen I mRNA in the carotid artery of animals treated with pUR4 in comparison with control peptide-treated animals (Table 3)."}, "[4]": {"settings": "vessel compartments analyzed separately"}}, "data": [{"molecule": "pUR4: 49-mer peptide derived from the bacterial F1 adhesin, His tagged, SEQ ID NO:1; class I fibronectin polymerization inhibitor (His tag; Bacterial adhesin derived peptide pUR4) MRGSHHHHHHGSKDQSPLAGESGETEYITEVYGNQQNPVDIDKKLPNETGFSGNMVETEDTKLN", "values": [{"measurement": "peptide detected in the vessel wall (media and adventitia)", "setting": "left carotid artery; 1 to 3 days after application", "result": "readily detected"}, {"measurement": "levels of the peptide in the vessel wall by day 7", "setting": "left carotid artery; day 7", "result": "significantly reduced"}, {"measurement": "increase in lumen volume after ligation", "setting": "[1]; 20 μmol/L in pluronic gel, periadventitial", "result": "prevented"}, {"measurement": "carotid (vascular) remodeling", "setting": "[1]; 20 μmol/L in pluronic gel, periadventitial, 14 days after ligation", "result": "dramatically reduced"}, {"measurement": "effect on IMT at 7 days", "setting": "[1]; 7 days after ligation", "result": "no statistical effect"}, {"measurement": "inhibition of adventitial thickening compared to III-11C", "setting": "[1]; 14 days after ligation", "result": 38, "unit": "%"}, {"measurement": "reduction of extent of IMT (intima-media thickening) vs control peptide", "setting": "[1]; 14 days after ligation", "result": 40, "unit": "%"}, {"measurement": "remodeling index, pUR4 vs III-11C", "setting": "[1]; mouse, in vivo", "result": "not different"}, {"measurement": "outward remodeling (EEL volume)", "setting": "[1]; no difference in EEL volume vs shams 7 days post ligation", "result": "prevented"}, {"measurement": "reduction of intima thickening", "setting": "[1]; [4]", "result": 63, "unit": "%"}, {"measurement": "reduction of media thickening", "setting": "[1]; [4]", "result": 27, "unit": "%"}, {"measurement": "concentration effective at inhibiting fibronectin matrix assembly", "setting": "[2]", "result": "50 to 100", "unit": "nM"}, {"measurement": "EC50", "setting": "[3]", "result": 10, "unit": "nM"}, {"measurement": "deposition of endogenous collagen I into matrix fibrils", "setting": "Rat aortic SMCs", "result": "inhibited"}, {"measurement": "deposition of endogenous fibronectin into the ECM", "setting": "Rat aortic SMCs", "result": "inhibited"}]}]}
